In article PMC9813255, “PQBP5/NOL10 maintains and anchors the nucleolus under physiological and osmotic stress conditions” (Nature Communications, 2023):

Molecular target: T1, human nucleolin (His-tag fusion protein) (human, UniProt P19338 1-710)
T1 construct: nucleolin, human, amplified from HEK293 cDNA into pET-28a; the printed primers run from the start codon to the stop codon; this is read from the printed primers; source: E. coli Rosetta 2(DE3), purified (Ni-NTA agarose)
Assay: SPR; Biacore T100, 25 °C; one protein immobilised on a CM5 chip (200 RU), analytes at 0-50 nM, 180 s at 10 μl/min; 25 mM Tris-HCl, 500 mM NaCl, 10% glycerol, 1% Triton X-100, pH 8.0
Conditions: both partners purified

T1 sequence (P19338 whole entry, the tested form may be a part): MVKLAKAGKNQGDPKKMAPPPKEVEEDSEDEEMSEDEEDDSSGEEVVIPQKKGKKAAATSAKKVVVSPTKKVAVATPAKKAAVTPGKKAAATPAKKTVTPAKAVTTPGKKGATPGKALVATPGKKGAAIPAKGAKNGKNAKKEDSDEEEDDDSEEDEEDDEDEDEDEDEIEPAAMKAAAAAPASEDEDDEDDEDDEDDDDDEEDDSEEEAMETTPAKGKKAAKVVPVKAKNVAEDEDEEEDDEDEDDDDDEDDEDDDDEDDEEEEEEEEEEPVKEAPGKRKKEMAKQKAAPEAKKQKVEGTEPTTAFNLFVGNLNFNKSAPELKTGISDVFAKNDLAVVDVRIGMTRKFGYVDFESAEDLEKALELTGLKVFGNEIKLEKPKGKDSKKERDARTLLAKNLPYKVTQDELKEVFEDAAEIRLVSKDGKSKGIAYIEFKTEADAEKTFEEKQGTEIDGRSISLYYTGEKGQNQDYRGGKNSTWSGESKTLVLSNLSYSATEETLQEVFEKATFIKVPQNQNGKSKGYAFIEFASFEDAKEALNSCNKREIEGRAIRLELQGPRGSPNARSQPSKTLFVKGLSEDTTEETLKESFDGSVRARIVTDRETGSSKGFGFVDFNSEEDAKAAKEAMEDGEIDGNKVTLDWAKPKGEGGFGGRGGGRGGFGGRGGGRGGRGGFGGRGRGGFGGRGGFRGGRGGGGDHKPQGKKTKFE

binding result: binds
B1: human fibrillarin (His-tag fusion protein) (natural protein, UniProt P22087 1-321, looked up)
chain: MKPGFSPRGGGFGGRGGFGDRGGRGGRGGFGGGRGRGGGFRGRGRGGGGGGGGGGGGGRGGGGFHSGGNRGRGRGGKRGNQSGKNVMVEPHRHEGVFICRGKEDALVTKNLVPGESVYGEKRVSISEGDDKIEYRAWNPFRSKLAAAILGGVDQIHIKPGAKVLYLGAASGTTVSHVSDIVGPDGLVYAVEFSHRSGRDLINLAKKRTNIIPVIEDARHPHKYRMLIAMVDVIFADVAQPDQTRIVALNAHTFLRNGGHFVISIKANCIDSTASAEAVFASEVKKMQQENMKPQEQLTLEPYERDHAVVVGVYRPPPKVKN
notes: fibrillarin, human, amplified from HEK293 cDNA into pET-28a; the printed primers run from the start codon to the stop codon; this is read from the printed primers; source: E. coli Rosetta 2(DE3), purified (Ni-NTA agarose)
